Experimental data published in patent US20260226161A1.

Columns and labels:
[1] = molecular target: NKG2A expressed on KHYG-1 cells (endogenous) (human) (UniProt P26715); assay: competition by flow cytometry on KHYG-1 cells: antibody varied, binding of HLA-E tetramer to NKG2A read as MFI
[2] = molecular target: Human NKG2A & CD94 with mouse IgG2a Fc tag (AcroBiosystems) (human) (UniProt P26715); assay: SPR (Carterra), antibody on chip, soluble antigen
[3] = molecular target: cynomolgus NKG2A/CD94 (soluble antigen of the equilibrium assay) (cynomolgus) (UniProt Q68VD2); assay: SPR equilibrium response, Langmuir isotherm; antibody on chip, soluble antigen
[4] = molecular target: NKG2A expressed on KHYG-1 cells (endogenous) (human) (UniProt P26715); assay: flow cytometry on KHYG-1 cells (endogenous NKG2A), MFI against Log [Ab] M
[5] = molecular target: NKG2A expressed on KHYG-1 cells (endogenous) (human) (UniProt P26715)

NKG2A expressed on KHYG-1 cells (endogenous) (human), sequence (P26715 whole entry, chain 1 of 2): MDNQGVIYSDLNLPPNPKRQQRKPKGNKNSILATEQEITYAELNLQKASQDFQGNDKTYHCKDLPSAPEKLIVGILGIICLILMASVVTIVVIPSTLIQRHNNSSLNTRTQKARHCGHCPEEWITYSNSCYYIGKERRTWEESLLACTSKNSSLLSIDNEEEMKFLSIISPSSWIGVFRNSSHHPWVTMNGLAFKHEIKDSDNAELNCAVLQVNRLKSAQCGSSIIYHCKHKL
NKG2A expressed on KHYG-1 cells (endogenous) (human), sequence (Q13241 whole entry, chain 2 of 2, further chain): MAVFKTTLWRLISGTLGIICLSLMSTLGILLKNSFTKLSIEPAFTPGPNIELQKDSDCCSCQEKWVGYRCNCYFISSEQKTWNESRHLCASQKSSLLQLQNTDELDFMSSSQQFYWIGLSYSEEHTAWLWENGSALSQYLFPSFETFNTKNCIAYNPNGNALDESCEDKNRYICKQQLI
Human NKG2A & CD94 with mouse IgG2a Fc tag (AcroBiosystems) (human), sequence (P26715 94-233 limits assumed, chain 1 of 2): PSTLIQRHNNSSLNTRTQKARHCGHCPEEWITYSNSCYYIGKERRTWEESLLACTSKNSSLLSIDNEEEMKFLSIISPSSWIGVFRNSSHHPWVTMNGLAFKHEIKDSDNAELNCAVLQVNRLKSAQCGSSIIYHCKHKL
Human NKG2A & CD94 with mouse IgG2a Fc tag (AcroBiosystems) (human), sequence (Q13241 32-179 limits assumed, chain 2 of 2, further chain): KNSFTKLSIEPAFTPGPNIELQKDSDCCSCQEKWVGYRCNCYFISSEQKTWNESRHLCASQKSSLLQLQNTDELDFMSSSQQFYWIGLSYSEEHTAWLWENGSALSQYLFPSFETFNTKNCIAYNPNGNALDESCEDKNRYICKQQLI
cynomolgus NKG2A/CD94 (soluble antigen of the equilibrium assay) (cynomolgus), sequence (NKG2A, as listed by the source limits assumed, chain 1 of 2): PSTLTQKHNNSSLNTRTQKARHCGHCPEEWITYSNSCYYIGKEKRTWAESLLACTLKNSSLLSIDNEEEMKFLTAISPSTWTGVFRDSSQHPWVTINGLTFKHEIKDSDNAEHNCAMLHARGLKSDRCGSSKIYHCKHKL
cynomolgus NKG2A/CD94 (soluble antigen of the equilibrium assay) (cynomolgus), sequence (CD94, as listed by the source limits assumed, chain 2 of 2): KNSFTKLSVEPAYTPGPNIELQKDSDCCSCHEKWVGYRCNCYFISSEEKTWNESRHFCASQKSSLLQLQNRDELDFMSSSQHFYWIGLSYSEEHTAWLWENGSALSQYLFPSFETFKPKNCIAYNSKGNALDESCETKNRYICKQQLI

B1: Benchmark anti-NKG2A antibody (IgG4) (antibody, INN chains, looked up, V domains shown)
VH: QVQLVQSGAEVKKPGASVKVSCKASGYTFTSYWMNWVRQAPGQGLEWMGRIDPYDSETHYAQKLQGRVTMTTDTSTSTAYMELRSLRSDDTAVYYCARGGYDFDVGTLYWFFDVWGQGTTVTVSS
VL: DIQMTQSPSSLSASVGDRVTITCRASENIYSYLAWYQQKPGKAPKLLIYNAKTLAEGVPSRFSGSGSGTDFTLTISSLQPEDFATYYCQHHYGTPRTFGGGTKVEIK
modifications: IgG4
IC50 (read off the curve) [1]: 0.3 nM
Kd [2]: 0.06 nM
koff [2]: 3e-05 s⁻¹
kon [2]: 510000 M⁻¹ s⁻¹
Kd [3]: 11 nM
EC50 (read off the curve) [4]: 0.04 nM
% double-positive events (Q2: PD-L1+ LCL721.221-hPD-L1 cells coupled to NKG2A+ KHYG-1 cells), antibody at 2 nM; monospecific control, no bridging [cont.] [5]: 0.59%
